Source: patent US9932404B2
Residue numbers refer to the chain shown, from its start.

B1: mAb c1811 (antibody, V domains shown)
VH: EVQLVASGGGLVKPGASLKLSCVASGFTFSDYWMAWVRQTPGKPMEYIGDIKSDGSKVNYAPSLKNRFTISRDNARTTLYLQMSNVRSEDTATYYCNRDIGPDWYFDFWGPGTMVTVSS
VL: DIQMTQSPTSLSASLGETVTIECRASEDIYNGLAWYQQKPGKSPQLLIYDSNSLHTGVPSRFSGRGSGTQYSLRINSLQSEDVASYFCQQYYDYPLTFGSGTKLEIKR
B2: mAb 8 (antibody, V domains shown)
VH: QVELQQSGPGLVKPSQTLSLTCAISGDSVSSNSAAWGWIRQSPGRGLEWLGIIQTRSKWYNDYAVSVKSRITINPDTSKNQFSLQLNSVTPEDTAVYYCARYSYPFYSIDYWGQGTLVTVSS
VL: DIELTQPPSVSVAPGQTARISCSGDNIGSYYVHWYQQKPGQAPVLVIYEDSERPSGIPERFSGSNSGNTATLTISGTQAEDEADYYCQSYDSQFSFGVFGGGTKLTVL
B3: mAb 12 (antibody, V domains shown)
V domain 1: B2 VH with T55K, D62N
V domain 2: B2 VH with Q1D, V2I, T55K, D62N
B4: mAb 9 (antibody, V domains shown)
VH: B2 VH with T55I, V65L
VL: B2 VL
B5: mAb 11 (antibody, V domains shown)
VH: B2 VH with T55K, D62N
VL: DIELTQPPSVSVAPGQTARISCSGDNIGSYYVHWYQQKPGQAPVLVIYEDSERPSGIPERFSGSNSGNTATLTISGTQAEDEADYYCSSYDEPNFNVFGGGTKLTVL
B6: mAb 10 (antibody, V domains shown)
VH: B2 VH with T55K, D62N
VL: B5 VL with S88Q, E92T, N94V, F95Y, N96S
B7: mAb 18 (antibody, V domains shown)
VH: B2 VH with T55K, D62N
VL: B2 VL
B8: mAb 1 (antibody, V domains shown)
V domain 1: GVELVQSGAEVKKPGESLKISCKGSGYSFTDNWISWVRQAPGKGLEWMGVIDPSDSYTNYAPSFQGQVTISADKSISTAYLQWSSLKASDTAMYYCAREWGIGGMVDIWG
V domain 2: DIVLTQSPATLSLSPGERATLSCRASQYIDISYLAWYQQKPGQAPRLLIYDASSRATGVPARFSGSGSGTDFTLTISSLEPEDFAVYYCQQYYSLSITFGQGTKVEIK
B9: mAb 13 (antibody, V domains shown)
VH: QVELVQSGAEVKKPGESLKISCKGSGYSFTNYWVGWVRQMPGKGLEWMGFIDPSDSYTNYAPSFQGQVTISADKSISTAYLQWSSLKASDTAMYYCARELYQGYMDTFDSWGQGTLVTVSS
VL: DIQMTQSPSSLSASVGDRVTITCRASQSIGLYLAWYQQKPGKAPKLLIYAASSLQSGVPSRFSGSGSGTDFTLTISSLQPEDFATYYCQQGESILSTFGQGTKVEIK
B10: mAb 14 (antibody, V domains shown)
VH: B9 VH
VL: DIQMTQSPSSLSASVGDRVTITCRASQSIGLYLAWYQQKPGKAPKLLIYAASSLQSGVPSRFSGSGSGTDFTLTISSLQPEDFATYYCQQAETVSPTFGQGTKVEIKR
B11: mAb 19 (antibody, V domains shown)
VH: B9 VH
VL: B9 VL with G91Y, E92G, I94V, L95S, S96I
B12: mAb 16 (antibody, V domains shown)
VH: QVELVQSGAEVKKPGESLKISCKGSGYSFNNYWIGWVRQMPGKGLEWMGIIDPGDSYTNYAPSFQGQVTISADKSISTAYLQWSSLKASDTAMYYCARNIYEFDYWGQGTLVTVSS
VL: DIQMTQSPSSLSASVGDRVTITCRASQGISSWLNWYQQKPGKAPKLLIYGASNLQSGVPSRFSGSGSGTDFTLTISSLQPEDFAVYYCQQYDDFSITFGQGTKVEIK
B13: mAb 2 (antibody, V domains shown)
VH: B12 VH with G54Q, Y57W
VL: B12 VL
B14: mAb 4 (antibody, V domains shown)
VH: QVELQQSGPGLVKPSQTLSLTCAISGDSVSTRSAAWGWIRQSPGRGLEWLGKISYRSRWYNDYAVSVKSRITINPDTSKNQFSLQLNSVTPEDTAVYYCARHTYPYLSFDVWGQGTLVTVSS
VL: DIELTQPPSVSVAPGQTARISCSGDALGGYFVSWYQQKPGQAPVLVIYDDDNRPSGIPERFSGSNSGNTATLTISGTQAEDEADYYCASYDGDEFTVFGGGTKLTVL
B15: mAb 6 (antibody, V domains shown)
VH: B14 VH with K52R, S54Y, Y55M, R58K
VL: B14 VL with A88G, G92S, D93N, E94S, F95L
B16: mAb 5 (antibody, V domains shown)
VH: B14 VH with K52R, S54Y, Y55M, R58K
VL: B14 VL with A88Q, G92E, E94S, F95A
B17: mAb 7 (antibody, V domains shown)
VH: B14 VH with K52R, S54Y, Y55M, R58K
VL: B14 VL with A88S, G92S, E94S, F95L
B18: mAb 17 (antibody, V domains shown)
VH: B14 VH with K52R, S54Y, Y55M, R58K
VL: B14 VL
B19: mAb 3 (antibody, V domains shown)
VH: B14 VH with K52R, S54H, Y55R, R58K
VL: B14 VL

These binders were tested against full-length murine TLR3 (mouse) (assay: not given).

Row | IC50, poly(I:C)-induced ISRE luciferase reporter | Binder
1 | 0.7 µg/mL | B1

These binders were tested against human TLR3 extracellular domain (amino acids 1-703) with C-terminal poly-histidine tag (human) (assay: Biacore (data not shown)).

Row | Kd | Binder
2 | < 10 nM | B2
3 | < 10 nM | B3
4 | < 10 nM | B4
5 | < 10 nM | B5
6 | < 10 nM | B6
7 | < 10 nM | B7
8 | < 10 nM | B8
9 | < 10 nM | B9
10 | < 10 nM | B10
11 | < 10 nM | B11
12 | < 10 nM | B12
13 | < 10 nM | B13
14 | < 10 nM | B14
15 | < 10 nM | B15
16 | < 10 nM | B16
17 | < 10 nM | B17
18 | < 10 nM | B18
19 | < 10 nM | B19

The binders below were run against human TLR3 extracellular domain (amino acids 1-703) with C-terminal poly-histidine tag (human) (assay: ELISA, coated huTLR3 ECD).

Row | EC50 | Binder
20 | 0.0186 µg/mL | B2
21 | 0.0256 µg/mL | B3
22 | 0.0226 µg/mL | B4
23 | 0.0263 µg/mL | B5
24 | 0.0158 µg/mL | B6
25 | 0.00968 µg/mL | B7
26 | 0.0172 µg/mL | B8
27 | 0.0235 µg/mL | B9
28 | 0.0336 µg/mL | B10
29 | 0.0665 µg/mL | B11
30 | 0.0437 µg/mL | B12
31 | 0.0531 µg/mL | B13
32 | 0.0128 µg/mL | B14
33 | 0.019 µg/mL | B15
34 | 0.0199 µg/mL | B16
35 | 0.0161 µg/mL | B17
36 | 0.0138 µg/mL | B18
37 | 0.0234 µg/mL | B19
